Tested on: Escherichia coli TOP10
Assay: shrunken log2 fold change of peptide-encoding DNA abundance (4.5 h post-induction vs induction); higher = less antimicrobial activity (less host growth inhibition)
Details: time post-induction: 4.5 h; library: site-saturation at positions 5, 18, 19, 20
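Note: peptides expressed intracellularly from a pBAD plasmid library in pooled LB shake-flask culture, induced with 0.3% L-arabinose, DNA abundance read by NGS, three biological replicates, DESeq2 with apeglm shrinkage.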

Sequence	shrunken log2 fold change
RRIRMRPPRLPRPRPRPKRYPRP	0.407
RRIRYRPPRLPRPRPRPCPYPRP	-0.0107
RRIRDRPPRLPRPRPRPGYSPRP	-0.591
RRIRARPPRLPRPRPRPFSRPRP	-0.145
RRIRHRPPRLPRPRPRPIAGPRP	0.0113
RRIRQRPPRLPRPRPRPRMMPRP	-0.161
RRIRPRPPRLPRPRPRPAFDPRP	0.388
RRIRHRPPRLPRPRPRPQFIPRP	-0.0365
RRIRQRPPRLPRPRPRPYWAPRP	-0.355
RRIRLRPPRLPRPRPRPRMDPRP	-0.106
RRIRQRPPRLPRPRPRPSKQPRP	-0.0831
RRIRNRPPRLPRPRPRPSTYPRP	-0.318
RRIRERPPRLPRPRPRPLTCPRP	-0.149
RRIRARPPRLPRPRPRPAHSPRP	0.469
RRIRKRPPRLPRPRPRPDYCPRP	0.0953
RRIRWRPPRLPRPRPRPHVNPRP	-0.315
RRIRLRPPRLPRPRPRPREYPRP	0.289
RRIRRRPPRLPRPRPRPHKEPRP	0.0317
RRIRYRPPRLPRPRPRPCFRPRP	-0.266
RRIRWRPPRLPRPRPRPSTPPRP	0.0706

Sequence	shrunken log2 fold change
RRIRSRPPRLPRPRPRPAEFPRP	0.00621
RRIRLRPPRLPRPRPRPGMSPRP	0.0159
RRIRWRPPRLPRPRPRPAVLPRP	0.117
RRIRMRPPRLPRPRPRPWEIPRP	-0.00146
RRIRFRPPRLPRPRPRPGINPRP	-0.288
RRIRNRPPRLPRPRPRPPEWPRP	-0.188
RRIRVRPPRLPRPRPRPENVPRP	-0.0136
RRIRERPPRLPRPRPRPKMMPRP	-0.153
RRIRPRPPRLPRPRPRPSYMPRP	-0.962
RRIRARPPRLPRPRPRPNMGPRP	0.137
RRIRRRPPRLPRPRPRPFKTPRP	-0.0587
RRIRSRPPRLPRPRPRPARVPRP	0.47
RRIRTRPPRLPRPRPRPLDHPRP	-0.186
RRIRYRPPRLPRPRPRPPFHPRP	-0.589
RRIRYRPPRLPRPRPRPCRWPRP	-0.267
RRIRTRPPRLPRPRPRPPRPPRP	0.713
RRIRWRPPRLPRPRPRPRTTPRP	0.755
RRIRKRPPRLPRPRPRPYVMPRP	-0.223
RRIRDRPPRLPRPRPRPKANPRP	0.091
RRIRMRPPRLPRPRPRPDAWPRP	2.59

Sequence	shrunken log2 fold change
RRIRWRPPRLPRPRPRPSCSPRP	-0.349
RRIRQRPPRLPRPRPRPSYWPRP	-0.0858
RRIRFRPPRLPRPRPRPTFKPRP	0.0617
RRIRKRPPRLPRPRPRPLMGPRP	0.818
RRIRARPPRLPRPRPRPIHSPRP	-0.184
RRIRARPPRLPRPRPRPQPSPRP	0.555
RRIRWRPPRLPRPRPRPGCQPRP	-0.0225
RRIRIRPPRLPRPRPRPVCTPRP	-0.159
RRIRKRPPRLPRPRPRPFMDPRP	0.0834
RRIRTRPPRLPRPRPRPECLPRP	0.105
RRIRNRPPRLPRPRPRPAEHPRP	-0.201
RRIRRRPPRLPRPRPRPMHCPRP	0.505
RRIRLRPPRLPRPRPRPSCPPRP	-0.169
RRIRKRPPRLPRPRPRPKFVPRP	-0.0367
RRIRPRPPRLPRPRPRPDHKPRP	-0.334
RRIRTRPPRLPRPRPRPQVQPRP	-0.0311
RRIRGRPPRLPRPRPRPDHVPRP	0.0598
RRIRVRPPRLPRPRPRPATCPRP	-0.164
RRIRQRPPRLPRPRPRPGGKPRP	-0.0313
RRIRRRPPRLPRPRPRPPHVPRP	0.915
